According to patent US20240018501A1, “HIGHER PERFORMANCE PROTEASES FOR SCARLESS PEPTIDE TAG REMOVAL” (priority 2017, published 2024):

What was measured:
[1] = target: T1, LanA3 encoded by the genome of B. cereus VD156
T1 chain: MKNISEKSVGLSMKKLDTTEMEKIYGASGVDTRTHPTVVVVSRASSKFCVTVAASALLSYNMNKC

CylA = CylA self-cleavage (SDS-PAGE, MALDI-TOF MS); assay type: biochemical, Enterococcus faecalis
Protocol: E. coli BL21 (DE3) cells were transformed with pRSFDuet-1/CylA-27-412, pRSFDuet-1/CylA-27-412-E95A, pRSFDuet-1/CylA-27-412-S359A or pRSFDuet-1/LicP-25-433 vectors and plated on an LB plate containing 50 mg/L kanamycin. A single colony was picked and grown in 20 mL of LB with kanamycin at 37° C. for 12 h and the resulting culture was inoculated into 2 L of LB. Cells were cultured at 37° C. until the OD at 600 nm reached 0.5, cooled and IPTG was added to a final concentration of 0.1 mM. The cells were cultured at 18° C. for another 10 h before harvesting. The cell pellet was resuspended on ice in LanP start buffer (20 mM HEPES, 1 M NaCl, pH 7.5 at 25° C.) and lysed by homogenization. The lysed sample was centrifuged at 23,700×g for 30 min and the pellet was discarded. The supernatant was passed through 0.45-μm syringe filters and the protein was purified by immobilized metal affinity chromatography (IMAC) loaded with nickel as described in B. Li et al. Methods Enzymol. 2009, 458, 533. […] Protein concentration was quantified by its absorbance at 280 nm. The extinction coefficient for His6-CylA-27-412, His6-CylA-27-412-E95A and His6-CylA-27-412-S359A was calculated as 30,830 M^−1 cm^−1. The extinction coefficient for His6-LicP-25-433 was calculated as 46,300 M^−1 cm^−1. […]

modified CylLS [2] = target: modified CylLS
modified CylLS [3] = assay: Kinetic analysis of full length CylA and CylA-96-412 against modified CylLS (LC/MS); assay type: biochemical, Enterococcus faecalis
Protocol: Targeted peptides were dissolved in H2O to a final concentration of 3 mg/mL. To a 85 μL solution of peptides, 10 μL of 500 mM HEPES buffer (pH 7.5) was added followed by 5 μL of 0.5 mg/mL AspN protease (for modified CylLL and CylLS peptides), 0.1 mg/mL CylA protease (for modified and unmodified CylLL, CylLS peptides, and modified HalA2-GDVQAE peptide) or 0.1 mg/mL LicP protease (for LicA2). For cleavage tests of the engineered GDVQAE peptides, CylA was added to a final concentration of 0.01 mg/mL, whereas the peptide was added to a concentration of 0.3 mg/mL with 50 mM HEPES buffer (pH 7.5). The protease cleavage reaction mixtures were kept at 25° C. for 1 to 48 h. Osmotic pressure was adjusted with NaCl solution with a final concentration of 150 mM. The digested peptide mixture was directly used for antimicrobial and hemolytic assay. For the kinetic analysis of CylA and its mutant proteins, His6-CylA-27-412 and His6-CylA-27-412-E95A proteins were added to a final concentration of 500 ng/mL and 2.5 μg/mL (22 nM and 110 nM), respectively, with modified CylLS supplied at a concentration of 0.3 mg/mL (36 μM). The reactions were allowed to proceed at room temperature and were stopped by 1% TFA at different time points for LC/MS analysis. Halα and Halβ were obtained by factor Xa cleavage of modified HalA1Xa and HalA2 Xa peptides using the procedure of Y. Shi, et al. J. Am. Chem. Soc. 2011, 133, 2338. CylLL″ and CylLS″ were prepared in the same way using modified CylLL-E-1K and CylLS-E-1K peptides as described in W. Tang and W. A. van der Donk, Nat. Chem. Biol. 2013, 9, 157.
As full length CylA is not available due to its self-cleavage, His6-CylA-27-412-E95A was chosen to serve as a substituent of full length CylA as the self-cleavage was abolished whereas the conserved catalytic C-terminal region of CylA remained unchanged. To obtain the mature protease CylA-96-412, His6-CylA-27-412 was aged at 4° C. for 12 hours to allow the self-cleavage to proceed until CylA-96-412 was the dominant peak monitored by MALDI-TOF MS. The aged protein mixture was directly used as a substituent of CylA-96-412. To test the proteases' activities, CylA-96-412 and His6-CylA-27-412-E95A were supplied with a final concentration of 22 nM and 110 nM, respectively, with modified CylLS served at a concentration of 36 μM. The reactions were stopped at 3 minute, 6 minute, 12 minute and 24 minute by 1% TFA and the formation of mature CylLS″ was monitored by liquid chromatography MS (LC/MS). […] The production of core peptide was analyzed by extracted ion chromatography monitoring the desired product mass 1017 (M+2H^+).

[4] = target: dehydrated and cyclized LanA2 from B. licheniformis 9945A

B1: LanP of B. cereus VD156 (without signal sequence, with His6 tag) (protein)
chain: MGSSHHHHHHSQDPTQIAYYSILIRDNTDFNTVLDKLSKDNQEVVYSIPEVNLIQVKGEKGKIISGIGLESIEEINPSTGEFKTYTPNINDQKVLDNKAIWDVQWDIKRITNNGESYKLHSPSGKVSVALIDSGYPENHPDIKSISIQKSKNLVPKGGYKGNEENETGNIHQLTDRTGHGTSVLSQVNADGLMKGVAPGMPVNMYRVFGESSAEGSWIIKGIIEAAKDKNDVINISAGSYLLKNGTYSDGSGNNRAEIKAYEKAIHYANKKGSIVVSALGNDSININIYSELLSILNSKIKDEGKSATGIVQDIPAQLAQVVSVASTGMDSKVSSFSNYGKNIIDFTAPGGDIKLLNKFGADVWMAEEMFKKEMILVAHPQGGYYFNYGNSLATPKVSGALALVIDKYGYKNKPNKAINHLKRNTNAENEIDLYKALQE
cleavage by the corresponding LanP, MALDI-TOF MS [1]: the core peptide is detected ... and the leader peptide is also observed

B2: His6-CylA-27-412-E95A (protein)
chain: MKRIYIFLLCFAVLLPVGGKTAQAKEQAGEQYLLLEHVKDKSKLLDTAEQFHIHADVIEEIGFAKVTGEKQKLAPFTKKLAEKVGADVIEKPIANTAVNETESVISGSPAWGLDGILELKEYLWFAAKQTDSYRTYQIERGHPDVKVALIDSGLDLDHPDLKASVNTNGGWNYIDGKPVSGDPTGHGTQTAGMINIIAPDVTITPYQVLDEKGGDSYNIMKAMVDAVNDGHEVINISTGSYTSLDREGKVLMKAYQRAANYAAKHQVLVFSSAGNKGVNLDEMRKTENKVHLPSALKHVVSVGSNMKSNNISPYSNQGREIEFTAPGGYLGETYDQDGMVRVTDLVLTTYPKGKDNTALDQMLNIPKGYSLSYGTSLAAPQVAGTAALVISEYRERHHRKPSAKQVHHILRKSALDLGKPGKDVIYGYGEVRAYQALKMMNKE
CylA self-cleavage during expression or purification (CylA): only one band corresponding to the full length protein
cleavage by His6-CylA-27-412-E95A (modified CylLS [2]): Incubation of modified CylLS with His6-CylA-27-412-E95A resulted in cleavage
fold lower rate of producing CylLS″ than CylA-96-412 (LC/MS; 110 nM enzyme, 36 µM substrate) (modified CylLS [2]): exhibited an approximate 10-fold lower rate of producing CylLS″
cleavage of modified CylLS (modified CylLS [3]): resulted in cleavage
lower rate of producing CylLS″ (modified CylLS [3]; enzyme 110 nM, modified CylLS 36 μM, versus CylA-96-412): ~10 fold

B3: LanP from B. licheniformis 9945A (without signal sequence, with His6 tag) (protein)
chain: MGSSHHHHHHSQDPDRYTIYLESPAHHDDWVKTLNERNIKLVYSVEEIGLYQIEGRQKEVQELAAEINYINSHNQSVAMQPASLHNTAPAEATIFGGTPTLWDDFQWDMRKATNNGQTYQITEGSKNTIVGIIDSGIDMNHPDLKENILSVRNFVPKGGLRGQEPYEKGDINDSTDYLGHGTFVAGQIAANGLMKGIAPETGIRSYRVFGGKSADTVWIIDAIIQAAIDDVDIINVSFGTFLVKQNRKNKQMPDTNDLAEIKAFKKAVSFAHKKGSAVVASIGNEGLDLKDKNAVFEYWRSTKQEDLSADGKVILIPAQLPNVVTVSSIGPSGMRSVFSNYGKNVVDIAADGGDLRLLNEVGEDRYYGEGLFRQEYILGAAPGVTYTFSIGTSIAAPKVSGALALLIDQKQLHDKPDKAVKILLKNADRNADKIDTGAGVLNVYRALTD
cleavage by the corresponding LanP, MALDI-TOF MS [4]: fully modified core peptide is observed after protease treatment (inset) ... the leader peptide is also observed
